In US20110045534A1:
Several values for one entry are separate records, joined by “and”; a condition that tells them apart may be missing. Equal values may be shown once.

Key:
[1] = molecular target: immunizing peptide for ERK2p; test: ELISA on coated peptide; supernatant 1x
[2] = molecular target: immunizing peptide for MRPL11; test: ELISA on coated peptide; supernatant 1x
[3] = molecular target: immunizing peptide for SUZ12; test: ELISA on coated peptide; supernatant 1x
[4] = molecular target: immunizing peptide for ERK2p; test: ELISA on coated peptide; supernatant 1/10
[5] = molecular target: immunizing peptide for MRPL11; test: ELISA on coated peptide; supernatant 1/10
[6] = molecular target: immunizing peptide for SUZ12; test: ELISA on coated peptide; supernatant 1/10

absorbance (OD 450 nm) [1]	absorbance (OD 450 nm) [2]	absorbance (OD 450 nm) [3]	absorbance (OD 450 nm) [4]	absorbance (OD 450 nm) [5]	absorbance (OD 450 nm) [6]	Binder
0.0663 OD450 and 0.0671 OD450	0.973 OD450 and 0.998 OD450	0.0542 OD450 and 0.0585 OD450	0.0621 OD450 and 0.0483 OD450	1.14 OD450 and 0.99 OD450	0.0486 OD450 and 0.0529 OD450	anti-MRPL11 rabbit IgG expressed from the L-2A-H cassette (antibody) light: QVLTQTPSPVSAAVGNTVTINCQASQSVRDNNYLSWYQQKPGQPPKLLIYRASTLESGVPSRFKGNGSGTQFTLTISDLECDDAATYYCQGGYGGNFFPFGGGTEVVVKGDPVAPTVLIFPPAADQVATGTVTIVCVANKYFPDVTVTWEVDGTTQTTGIENSKTPQNSADCTYNLSSTLTLTSTQYNSHKEYTCKVTQGTTSVVQSFNRGDCEGRGSLLTCGDVEENPG heavy: QSVEESGGRLVKPDETLTITCTVSGIDLNNNAMGWVRQAPGEGLEYIGFIGGSGATYYSTWAKGRFTISKSSTTVDLMITSPTTEDTATYFCARYAGSGSFDFSGPGTLVTVSLGQPKAPSVFPLAPCCGDTPSSTVTLGCLVKGYLPEPVTVTWNSGTLTNGVRTFPSVRQSSGLYSLSSVVSVTSSSQPVTCNVAHPATNTKVDKTVAPSTCSKPTCPPPELLGGPSVFIFPPKPKDTLMISRTPEVTCVVVDVSQDDPEVQFTWYINNEQVRTARPPLREQQFNSTIRVVSTLPIAHQDWLRGKEFKCKVHNKALPAPIEKTISKARGQPLEPKVYTMGPPREELSSRSVSLTCMINGFYPSDISVEWEKNGKAEDNYKTTPAVLDSDGSYFLYSKLSVPTSEWQRGDVFTCSVMHEALHNHYTQKSISRSPGK
0.0534 OD450 and 0.0524 OD450	1.01 OD450 and 1.06 OD450	0.0487 OD450 and 0.0489 OD450	0.0478 OD450 and 0.0482 OD450	0.972 OD450 and 1.04 OD450	0.0461 OD450 and 0.0445 OD450	anti-MRPL11 rabbit IgG expressed from the H-2A-L cassette (antibody) heavy: QSVEESGGRLVKPDETLTITCTVSGIDLNNNAMGWVRQAPGEGLEYIGFIGGSGATYYSTWAKGRFTISKSSTTVDLMITSPTTEDTATYFCARYAGSGSFDFSGPGTLVTVSLGQPKAPSVFPLAPCCGDTPSSTVTLGCLVKGYLPEPVTVTWNSGTLTNGVRTFPSVRQSSGLYSLSSVVSVTSSSQPVTCNVAHPATNTKVDKTVAPSTCSKPTCPPPELLGGPSVFIFPPKPKDTLMISRTPEVTCVVVDVSQDDPEVQFTWYINNEQVRTARPPLREQQFNSTIRVVSTLPIAHQDWLRGKEFKCKVHNKALPAPIEKTISKARGQPLEPKVYTMGPPREELSSRSVSLTCMINGFYPSDISVEWEKNGKAEDNYKTTPAVLDSDGSYFLYSKLSVPTSEWQRGDVFTCSVMHEALHNHYTQKSISRSPGKEGRGSLLTCGDVEENPG light: QVLTQTPSPVSAAVGNTVTINCQASQSVRDNNYLSWYQQKPGQPPKLLIYRASTLESGVPSRFKGNGSGTQFTLTISDLECDDAATYYCQGGYGGNFFPFGGGTEVVVKGDPVAPTVLIFPPAADQVATGTVTIVCVANKYFPDVTVTWEVDGTTQTTGIENSKTPQNSADCTYNLSSTLTLTSTQYNSHKEYTCKVTQGTTSVVQSFNRGDC
0.0575 OD450	0.971 OD450	0.0474 OD450	0.0629 OD450	1.01 OD450	0.0485 OD450	anti-MRPL11 rabbit IgG expressed from two separate vectors (H + L positive control) (antibody) heavy: QSVEESGGRLVKPDETLTITCTVSGIDLNNNAMGWVRQAPGEGLEYIGFIGGSGATYYSTWAKGRFTISKSSTTVDLMITSPTTEDTATYFCARYAGSGSFDFSGPGTLVTVSLGQPKAPSVFPLAPCCGDTPSSTVTLGCLVKGYLPEPVTVTWNSGTLTNGVRTFPSVRQSSGLYSLSSVVSVTSSSQPVTCNVAHPATNTKVDKTVAPSTCSKPTCPPPELLGGPSVFIFPPKPKDTLMISRTPEVTCVVVDVSQDDPEVQFTWYINNEQVRTARPPLREQQFNSTIRVVSTLPIAHQDWLRGKEFKCKVHNKALPAPIEKTISKARGQPLEPKVYTMGPPREELSSRSVSLTCMINGFYPSDISVEWEKNGKAEDNYKTTPAVLDSDGSYFLYSKLSVPTSEWQRGDVFTCSVMHEALHNHYTQKSISRSPGK light: QVLTQTPSPVSAAVGNTVTINCQASQSVRDNNYLSWYQQKPGQPPKLLIYRASTLESGVPSRFKGNGSGTQFTLTISDLECDDAATYYCQGGYGGNFFPFGGGTEVVVKGDPVAPTVLIFPPAADQVATGTVTIVCVANKYFPDVTVTWEVDGTTQTTGIENSKTPQNSADCTYNLSSTLTLTSTQYNSHKEYTCKVTQGTTSVVQSFNRGDC
